Each block holds one binder with its values, some of them ahead of it.
Experiments:
[1] = biological target: T1, rHuman ErbB2/Fc Chimera, CF (R&D Systems Cat#1129-ER) (human, UniProt P04626 23-652); experiment: ECL multispot (MSD), antigen spotted, Fab in solution; blank spot 352
T1 construct: Bought reagent

[2] = biological target: T2, rHuman EGF R/Fc Chimera, CF (R&D Systems Cat#344-ER) (human, UniProt P00533 25-645); experiment: as above
T2 construct: Bought reagent

[3] = biological target: T3, rHuman HGF R/c-MET/Fc Chimera, CF (R&D Systems Cat#358-MT/CF) (human, UniProt P08581 25-932); experiment: as above
T3 construct: Bought reagent; also called HGF R/Fc

[4] = biological target: T4, rHuman Notch-1/Fc Chimera, CF (R&D Systems Cat#3647-TK) (human, UniProt P46531 19-526); experiment: as above
T4 construct: Bought reagent

[5] = biological target: T5, rHuman CD44/Fc Chimera, CF (R&D Systems Cat#3660-CD) (human, UniProt P16070 21-220); experiment: as above
T5 construct: Bought reagent

[6] = biological target: T6, rHuman IGF-1 sR (insulin-like growth factor-1 soluble receptor), CF (R&D Systems Cat#391-GR) (human, UniProt P08069 31-932); experiment: as above
T6 construct: Bought soluble receptor

[7] = biological target: T7, rHuman P-Cadherin/Fc Chimera, CF (R&D Systems Cat#861-PC) (human, UniProt P22223 108-654); experiment: as above
T7 construct: Bought reagent

[8] = biological target: T8, rHuman Erythropoietin R/Fc Chimera, CF (R&D Systems Cat#963-ER) (human, UniProt P19235 25-250); experiment: as above
T8 construct: Bought reagent; also called EPO R; Epo R/Fc
T8 sequence (looked up): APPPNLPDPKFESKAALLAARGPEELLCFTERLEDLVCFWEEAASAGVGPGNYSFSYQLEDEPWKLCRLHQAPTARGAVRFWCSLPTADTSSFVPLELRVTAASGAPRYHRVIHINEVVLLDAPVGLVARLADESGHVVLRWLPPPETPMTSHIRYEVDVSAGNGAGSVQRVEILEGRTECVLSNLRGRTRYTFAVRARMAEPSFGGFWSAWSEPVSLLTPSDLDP

[9] = biological target: T9, Recombinant Human DLL4 (R&D Systems Cat#1506-D4/CF) (human, UniProt Q9NR61 27-524); experiment: as above
T9 construct: Bought recombinant protein; also called delta-like protein 4; rHuman DLL4

[10] = biological target: T10, rHuman ErbB2/Fc Chimera, CF (R&D Systems Cat#1129-ER) (human, UniProt P04626 23-652); experiment: ECL multispot (MSD) assay, antigen spotted on plate; blank spot of this row 302
T10 construct: Bought recombinant protein; also called human epidermal growth factor 2 receptor; Fc part of the bought chimera not given

[11] = biological target: T11, rHuman EGF R/Fc Chimera, CF (R&D Systems Cat#344-ER) (human, UniProt P00533 25-645); experiment: as above
T11 construct: Bought recombinant protein; also called epidermal growth factor receptor; Fc part of the bought chimera not given

[12] = biological target: T12, rHuman HGF R/c-MET/Fc Chimera, CF (R&D Systems Cat#358-MT/CF) (human, UniProt P08581 25-932); experiment: as above
T12 construct: Bought recombinant protein; also called HGF R/Fc; hepatocyte growth factor receptor; Fc part of the bought chimera not given

[13] = biological target: T13, rHuman Notch-1/Fc Chimera, CF (R&D Systems Cat#3647-TK) (human, UniProt P46531 19-526); experiment: as above
T13 construct: Bought recombinant protein; Fc part of the bought chimera not given

[14] = biological target: T14, rHuman CD44/Fc Chimera, CF (R&D Systems Cat#3660-CD) (human, UniProt P16070 21-220); experiment: as above
T14 construct: Bought recombinant protein; Fc part of the bought chimera not given

[15] = biological target: T15, rHuman IGF-1 sR, (IGF-1 sR), CF (R&D Systems Cat#391-GR) (human, UniProt P08069 31-932); experiment: as above
T15 construct: Bought recombinant soluble receptor; also called insulin-like growth factor-1 soluble receptor

[16] = biological target: T16, rHuman P-Cadherin/Fc Chimera, CF (R&D Systems Cat#861-PC) (human, UniProt P22223 108-654); experiment: as above
T16 construct: Bought recombinant protein; Fc part of the bought chimera not given

[17] = biological target: T17, rHuman Erythropoietin R/Fc Chimera, CF (R&D Systems Cat#963-ER) (human, UniProt P19235 25-250); experiment: as above
T17 construct: Bought recombinant protein; also called EPO R; EPO R/Fc; Fc part of the bought chimera not given
T17 sequence (looked up): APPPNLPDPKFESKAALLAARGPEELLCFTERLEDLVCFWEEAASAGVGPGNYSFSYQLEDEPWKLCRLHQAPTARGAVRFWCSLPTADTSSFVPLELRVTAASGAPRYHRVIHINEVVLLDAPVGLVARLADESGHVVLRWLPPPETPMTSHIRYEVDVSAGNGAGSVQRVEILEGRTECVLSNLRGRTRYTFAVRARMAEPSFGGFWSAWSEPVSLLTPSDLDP

[18] = biological target: T18, Recombinant Human DLL4 (R&D Systems Cat#1506-D4/CF) (human, UniProt Q9NR61 27-524); experiment: as above
T18 construct: Bought recombinant protein; also called delta-like protein 4; rHuman DLL4

[19] = biological target: T10, rHuman ErbB2/Fc Chimera, CF (R&D …); experiment: ECL multispot (MSD) assay, antigen spotted on plate; blank spot of this row 351
[20] = biological target: T11, rHuman EGF R/Fc Chimera, CF (R&D …); experiment: as above
[21] = biological target: T12, rHuman HGF R/c-MET/Fc Chimera, CF (R&D …); experiment: as above
[22] = biological target: T13, rHuman Notch-1/Fc Chimera, CF (R&D …); experiment: as above
[23] = biological target: T14, rHuman CD44/Fc Chimera, CF (R&D Systems …); experiment: as above
[24] = biological target: T15, rHuman IGF-1 sR, (IGF-1 sR), CF (R&D …); experiment: as above
[25] = biological target: T16, rHuman P-Cadherin/Fc Chimera, CF (R&D …); experiment: as above
[26] = biological target: T17, rHuman Erythropoietin R/Fc Chimera, CF …; experiment: as above
[27] = biological target: T18, Recombinant Human DLL4 (R&D Systems …); experiment: as above
[28] = biological target: T10, rHuman ErbB2/Fc Chimera, CF (R&D …); experiment: ECL multispot (MSD) assay, antigen spotted on plate; blank spot of this row 184
[29] = biological target: T11, rHuman EGF R/Fc Chimera, CF (R&D …); experiment: as above
[30] = biological target: T12, rHuman HGF R/c-MET/Fc Chimera, CF (R&D …); experiment: as above
[31] = biological target: T13, rHuman Notch-1/Fc Chimera, CF (R&D …); experiment: as above
[32] = biological target: T14, rHuman CD44/Fc Chimera, CF (R&D Systems …); experiment: as above
[33] = biological target: T15, rHuman IGF-1 sR, (IGF-1 sR), CF (R&D …); experiment: as above
[34] = biological target: T16, rHuman P-Cadherin/Fc Chimera, CF (R&D …); experiment: as above
[35] = biological target: T17, rHuman Erythropoietin R/Fc Chimera, CF …; experiment: as above
[36] = biological target: T18, Recombinant Human DLL4 (R&D Systems …); experiment: as above

ECL signal [1]: 241 | ECL signal [2]: 400 | ECL signal [3]: 297 | ECL signal [4]: 296 | ECL signal [5]: 437 | ECL signal [6]: 362 | ECL signal [7]: 396 | ECL signal [8]: 525 | ECL signal [9]: 175000
B1: Fab VH1-46_IGHD6-6*01_IGHJ1*01 S102A/S103P/S104F/H111F (APFF) & L6_IGKJ1*01 S30N (Fab, V domains shown)
VH: QVQLVQSGAEVKKPGASVKVSCKASGYTFTSYYMHWVRQAPGQGLEWMGIINPSGGSTSYAQKFQGRVTMTRDTSTSTVYMELSSLRSEDTAVYYCAREEYAPFSAEYFQFWGQGTLVTVSS
VL: EIVLTQSPATLSLSPGERATLSCRASQSVNSYLAWYQQKPGQAPRLLIYDASNRATGIPARFSGSGSGTDFTLTISSLEPEDFAVYYCQQRSNWPPWTFGQGTKVEIKR
notes: Tested as Fab made in E. coli: VH joined to CH1 from Plasmid A (His6 and Flag tags), VL joined to kappa CL from Plasmid C; also called APFF / S30N

ECL signal [10]: 358 | ECL signal [11]: 385 | ECL signal [12]: 383 | ECL signal [13]: 346 | ECL signal [14]: 411 | ECL signal [15]: 312 | ECL signal [16]: 413 | ECL signal [17]: 418 | ECL signal [18]: 1260
B2: Fab VH1-46_IGHD6-6*01_IGHJ1*01 S102A/S103P/S104F/H111F (APFF) & L6_IGKJ1*01 S30P (Fab, V domains shown)
VH: QVQLVQSGAEVKKPGASVKVSCKASGYTFTSYYMHWVRQAPGQGLEWMGIINPSGGSTSYAQKFQGRVTMTRDTSTSTVYMELSSLRSEDTAVYYCAREEYAPFSAEYFQFWGQGTLVTVSS
VL: EIVLTQSPATLSLSPGERATLSCRASQSVPSYLAWYQQKPGQAPRLLIYDASNRATGIPARFSGSGSGTDFTLTISSLEPEDFAVYYCQQRSNWPPWTFGQGTKVEIKR
notes: Fab made in E. coli: VH cloned into Plasmid A (CH1, His6 and Flag tags), kappa VL into Plasmid C (kappa CL); also called APFF / S30P

ECL signal [19]: 260 | ECL signal [20]: 298 | ECL signal [21]: 263 | ECL signal [22]: 346 | ECL signal [23]: 343 | ECL signal [24]: 304 | ECL signal [25]: 397 | ECL signal [26]: 480 | ECL signal [27]: 178000
B3: Fab VH1-46_IGHD6-6*01_IGHJ1*01 S102A/S103P/S104F/H111F (APFF) & L6_IGKJ1*01 S30G (Fab, V domains shown)
VH: QVQLVQSGAEVKKPGASVKVSCKASGYTFTSYYMHWVRQAPGQGLEWMGIINPSGGSTSYAQKFQGRVTMTRDTSTSTVYMELSSLRSEDTAVYYCAREEYAPFSAEYFQFWGQGTLVTVSS
VL: EIVLTQSPATLSLSPGERATLSCRASQSVGSYLAWYQQKPGQAPRLLIYDASNRATGIPARFSGSGSGTDFTLTISSLEPEDFAVYYCQQRSNWPPWTFGQGTKVEIKR
notes: Fab made in E. coli: VH cloned into Plasmid A (CH1, His6 and Flag tags), kappa VL into Plasmid C (kappa CL); also called APFF / S30G

ECL signal [28]: 295 | ECL signal [29]: 337 | ECL signal [30]: 311 | ECL signal [31]: 364 | ECL signal [32]: 451 | ECL signal [33]: 342 | ECL signal [34]: 317 | ECL signal [35]: 475 | ECL signal [36]: 187000
B4: Fab VH1-46_IGHD6-6*01_IGHJ1*01 S102A/S103P/S104F/H111F (APFF) & L6_IGKJ1*01 S30A (Fab, V domains shown)
VH: QVQLVQSGAEVKKPGASVKVSCKASGYTFTSYYMHWVRQAPGQGLEWMGIINPSGGSTSYAQKFQGRVTMTRDTSTSTVYMELSSLRSEDTAVYYCAREEYAPFSAEYFQFWGQGTLVTVSS
VL: EIVLTQSPATLSLSPGERATLSCRASQSVASYLAWYQQKPGQAPRLLIYDASNRATGIPARFSGSGSGTDFTLTISSLEPEDFAVYYCQQRSNWPPWTFGQGTKVEIKR
notes: Fab made in E. coli: VH cloned into Plasmid A (CH1, His6 and Flag tags), kappa VL into Plasmid C (kappa CL); also called APFF / S30A

— patent US20120316071A1 (published 2012)
